The target of assay [1] is T1, His6-GIGYF1 GYF domain (residues 470-538) (human, UniProt O75420 470-538).
T1 sequence (looked up): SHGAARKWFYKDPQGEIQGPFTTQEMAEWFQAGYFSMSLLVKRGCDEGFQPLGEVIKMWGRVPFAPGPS
Briefly: pull-down.

For assay [2], the target named is T2, His6-GIGYF2 GYF domain (residues 529-597) (human, UniProt Q6Y7W6 529-597).
T2 sequence (looked up): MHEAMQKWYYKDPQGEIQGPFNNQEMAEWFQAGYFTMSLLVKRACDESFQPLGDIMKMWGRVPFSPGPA
The assay is described as follows: pull-down.

B1: GST-tagged fragment of the first tetra-proline region of TTP (residues 68-78) (peptide, UniProt P26651 68-78, looked up)
chain: GWVPPPPGFAP
Regarding B1, the binding result in assay [1] and in assay [2] was “binds” throughout.

Source of the values: doi:10.1101/2021.08.20.457040 (bioRxiv, 2021).
